Source: article PMC11151819

Target: BIR3 domain of XIAP (human) (UniProt P98170)
Experiment: SEC

BIR3 domain of XIAP (from UniProt P98170 241-356) (domain or fragment)
stoichiometry N: 2
